The supplement of paper PMC9732359
± gives the uncertainty stated by the source.

Assay: protein stability index of a GFP-peptide fusion (yeast GPS) (PSI 1-4); higher = more stable; sorted into four equal gates, so the index is relative within each strain
In short: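 Tiled 17-residue peptides from yeast proteins were fused downstream of GFP on a plasmid that also expresses Cherry, and the pooled library was carried in yeast. Mid-log cultures grown in leucine-free medium were sorted into four equal gates by GFP/Cherry fluorescence ratio. Plasmids from each gate were PCR-amplified and Illumina-sequenced, and reads were assigned to strains by barcodes. Each peptide's protein stability index is the sum, over gates, of the gate's read frequency multiplied by its gate number.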

| Sequence | protein stability index (doa10∆) | protein stability index (pdr5∆) | protein stability index (san1∆) | protein stability index (ubr1∆) |
| --- | --- | --- | --- | --- |
| KLLQLAGVEDVYTQSNG [RPS2] | 1.56 ± 0.066 | 2.64 ± 0.13 | 3.19 ± 0.13 | 3.13 ± 0.086 |
| KLQFETDRLSTTQRRYE [SMC1] | 3.13 ± 0.094 | 3.3 ± 0.058 | 3.12 ± 0.086 | 3.12 ± 0.083 |
| KLQSQSLHTKNVFGTLQ [YLR018C/POM34] | 2.87 ± 0.12 | 2.82 ± 0.12 | 2.29 ± 0.26 | 2.94 ± 0.11 |
| KLSISNAASQQPTPRSA [GAL11] | 2.57 ± 0.083 | 2.61 ± 0.081 | 2.73 ± 0.058 | 2.91 ± 0.049 |
| KLSKILPRYQELTKEEA [SMC3] | 3.16 ± 0.11 | 3.34 ± 0.094 | 3.34 ± 0.086 | 3.35 ± 0.1 |
| KLTDEQSSLDVAGLEDK [SIR3] | 2.68 ± 0.083 | 2.85 ± 0.13 | 2.75 ± 0.083 | 3.1 ± 0.062 |
| KLTSEETVFNYRLMIKR [GRR1] | 3.02 ± 0.12 | 2.96 ± 0.12 | 2.56 ± 0.12 | 2.82 ± 0.095 |
| KLVEIIWNDVVYGEGTS [YJL039C/NUP192] | 3.46 ± 0.11 | 3.26 ± 0.11 | 3.39 ± 0.098 | 3.35 ± 0.058 |
| KLVLNISVGESGDRLTR [RPL11A] |  |  | 2.6 ± 0.2 | 1.08 ± 0.14 |
| KLWFQLSESLTKFFDDA [RPN9] | 3.02 ± 0.083 | 3.24 ± 0.099 | 3.02 ± 0.066 | 3.17 ± 0.097 |
| KLYQTEPSGIYSSWSAQ [PRE6] | 2.63 ± 0.084 | 2.15 ± 0.11 | 2.87 ± 0.11 | 1.46 ± 0.054 |
| KMELVYVSDSDDSSSDN [SIR4] | 2.7 ± 0.059 | 2.68 ± 0.058 | 2.47 ± 0.078 | 2.59 ± 0.067 |
| KMFIQRILAMCVKNHGQ [YCS4] | 1.69 ± 0.062 | 2.1 ± 0.055 | 2.22 ± 0.071 | 1.92 ± 0.057 |
| KMIDFATLSKLKKKYQI [SIR3] | 2.9 ± 0.11 | 3.35 ± 0.1 | 3.53 ± 0.051 | 3.47 ± 0.048 |
| KMNNKPERFMVFQLPTR [RPC53] | 2.38 ± 0.063 | 2.75 ± 0.056 | 2.65 ± 0.085 | 2.83 ± 0.058 |
| KMSVTCNAQPITRSVMR [BRR2] | 2.47 ± 0.06 | 2.67 ± 0.057 | 2.72 ± 0.056 | 2.5 ± 0.037 |
| KNAQYHLLVKQGDGLLT [RPN7] | 1.96 ± 0.1 | 1.61 ± 0.079 | 1.12 ± 0.18 | 1.22 ± 0.08 |
| KNATEELLRLANEQLKL [CSN12] | 3 ± 0.071 | 2.93 ± 0.058 | 2.89 ± 0.077 | 2.8 ± 0.094 |
| KNDKLIKIEDFVDDMLR [SNF5] | 2.88 ± 0.063 | 2.73 ± 0.066 | 1.98 ± 0.078 | 2.68 ± 0.07 |
| KNDNIKKSVNKLDKQIN [POP6] | 2.78 ± 0.049 | 2.87 ± 0.059 | 2.73 ± 0.059 | 2.78 ± 0.046 |
| KNFIESESVGAFLSFLA [YJL039C/NUP192] | 2.1 ± 0.066 | 2.25 ± 0.068 | 2.47 ± 0.066 | 2.85 ± 0.045 |
| KNFKGIEEIEYNVKNII [PCI8] | 3.05 ± 0.078 | 3.04 ± 0.093 | 3.11 ± 0.061 | 3.05 ± 0.063 |
| KNGNEYNEFLYSKAGRE [QCR8] | 2.77 ± 0.064 | 3 ± 0.081 | 2.77 ± 0.06 | 2.75 ± 0.05 |
| KNKGLVVSPYDYNHKRV [DIB1] | 3.18 ± 0.12 | 3.19 ± 0.11 | 3.02 ± 0.14 | 3.35 ± 0.17 |
| KNLISRINTLPQVQLPV [ECM29] | 2.85 ± 0.13 | 2.86 ± 0.1 | 2.9 ± 0.16 | 2.83 ± 0.17 |
| KNLKDTASVEKAEFSKE [YIL149C/MLP2] | 3.07 ± 0.083 | 3.19 ± 0.091 | 3.09 ± 0.1 | 3.24 ± 0.081 |
